Test results from patent publication US20230272099A1 (Chugai, published 2023).
Where a chain is given by its changes, count along the chain named.

B1: A375-SCF039a/B167-Lamlib (antibody, human IgG1, lambda)
heavy: EVQLVESGGGLVKPGGSLRLSCAASGFTFSTFTMNWVRQAPGKGLEWVSSISSKSTYIEYADSFKVRFTISRDNAKNSLYLQMNSLRAEDTAVYYCARYGAKNFLNWVFDYWGQGTLVTVSSASTKGPSVFPLAPSSKSTSGGTAALGCLVKDYFPEPVTVSWNSGALTSGVHTFPAVLQSSGLYSLSSVVTVPSSSLGTQTYICNVNHKPSNTKVDKRVEPKSCDKTHTCPPCPAPELWNGPSVFLFPPKPKDTLMISRTPEVTCVVVDVSDEDPEVKFNWYVDGVEVHNAKTKPREELYNSTYRVVSVLTVLHQDWLNGKEYKCKVSNTALPKPIEKTISKAKGQRREPQVYTLPPSREEMTKNQVSLTCLVKGFYPSDIAVEWESNGQPENNYKTTPPVLDSDGSFFLYSKLTVDKSRWQQGNVFSCSVMHEALHNHYTQKSLSLSP
light: QSALTQPPSASGSPGQTVTISCTGTRYDVGYYEYVSWYQQHPGKAPKLMIYETSKRLSGVPDRFSGSKSGNTASLTVSGLQAEDEADYYCSSYRYEHQVSFGGGTKLTVLGQPKAAPSVTLFPPSSEELQANKATLVCLISDFYPGAVTVAWKADSSPVKAGVETTTPSKQSNNKYAASSYLSLTPEQWKSHRSYSCQVTHEGSTVEKTVAPTECS
B2: A375-SCF041a/B167-Lamlib (antibody, human IgG1, lambda)
heavy: B1 heavy with W240L, L300Q, T331K
light: B1 light
B3: A375-SCF042a/B167-Lamlib (antibody, human IgG1, lambda)
heavy: B1 heavy with W240L, L300Q, T331K, R348P, D418K
light: B1 light
notes: copies: 2 + 2
B4: A375-SCF041aPh/B167-Lamlib (antibody, human IgG1, lambda)
heavy: B1 heavy with L300Q, T331K
light: B1 light
B5: A375-SCF043aPh/B167-Lamlib (antibody, human IgG1, lambda)
heavy: B1 heavy with L300Q, T331K, D418K
light: B1 light
B6: A375-SCF043a/B167-Lamlib (antibody, human IgG1, lambda)
heavy: B1 heavy with W240L, L300Q, T331K, D418K
light: B1 light
B7: A375-SCF040/B167-Lamlib (antibody, human IgG1, lambda)
heavy: B1 heavy with R219K, R348P, D418K
light: B1 light
notes: copies: 2 + 2

molecular target: T1, human FcgRIIa type H extracellular domain (human, UniProt P12318 34-217); experiment: SPR 25C
T1 construct: extracellular domain; also called hFcgRIIaH
T1 sequence (looked up): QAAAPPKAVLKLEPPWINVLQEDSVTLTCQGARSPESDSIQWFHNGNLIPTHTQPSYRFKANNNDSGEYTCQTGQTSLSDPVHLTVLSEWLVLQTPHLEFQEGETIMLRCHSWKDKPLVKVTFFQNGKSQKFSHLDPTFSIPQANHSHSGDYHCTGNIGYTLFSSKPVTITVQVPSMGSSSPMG

| Binder | binding per 1RU antibody | relative binding (A375-G1T3/B167-Lamlib=1) |
| --- | --- | --- |
| B1 | 0.0542 RU | 0.96 |
| B2 | 0.0571 RU | 1.01 |
| B3 | 0.0522 RU | 0.92 |
| B4 | 0.0371 RU | 0.65 |
| B5 | 0.0349 RU | 0.62 |
| B6 | 0.0552 RU | 0.97 |
| B7 | 0.0454 RU | 0.8 |

molecular target: T2, human FcgRIIb extracellular domain (human, UniProt P31994 43-217); experiment: SPR 25C
T2 construct: extracellular domain; also called hFcgRIIb
T2 sequence (looked up): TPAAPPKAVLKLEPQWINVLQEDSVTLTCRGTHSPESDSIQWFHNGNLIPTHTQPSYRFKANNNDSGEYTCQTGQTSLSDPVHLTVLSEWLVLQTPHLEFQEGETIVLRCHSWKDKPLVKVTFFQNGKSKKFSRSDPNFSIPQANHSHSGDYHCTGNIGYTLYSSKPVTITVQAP

| Binder | binding per 1RU antibody | relative binding (A375-G1T3/B167-Lamlib=1) |
| --- | --- | --- |
| B1 | 0.054 RU | 4.93 |
| B2 | 0.0433 RU | 3.95 |
| B3 | 0.0393 RU | 3.59 |
| B4 | 0.035 RU | 3.2 |
| B5 | 0.0339 RU | 3.1 |
| B6 | 0.0419 RU | 3.82 |
| B7 | 0.0465 RU | 4.24 |

molecular target: T3, human FcgRIa extracellular domain (human, UniProt P12314 16-292); experiment: SPR 25C
T3 construct: extracellular domain; also called hFcgRIa
T3 sequence (P12314 16-292): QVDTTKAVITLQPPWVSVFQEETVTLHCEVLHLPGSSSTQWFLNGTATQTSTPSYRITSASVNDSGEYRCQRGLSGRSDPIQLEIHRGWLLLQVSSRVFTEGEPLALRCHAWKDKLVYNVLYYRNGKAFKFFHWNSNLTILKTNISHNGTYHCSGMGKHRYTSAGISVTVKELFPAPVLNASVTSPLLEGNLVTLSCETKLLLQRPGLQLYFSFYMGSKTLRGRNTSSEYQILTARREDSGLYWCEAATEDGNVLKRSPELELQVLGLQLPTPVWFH

| Binder | binding per 1RU antibody | relative binding (A375-G1T3/B167-Lamlib=1) |
| --- | --- | --- |
| B1 | 0.0018 RU | 0.02 |
| B2 | 0.0446 RU | 0.55 |
| B3 | 0.0396 RU | 0.49 |
| B4 | 0.0013 RU | 0.02 |
| B5 | 0.0011 RU | 0.01 |
| B6 | 0.0429 RU | 0.53 |
| B7 | 0.0016 RU | 0.02 |

molecular target: T4, human FcgRIIIa V158 extracellular domain (human, UniProt P08637 17-208); experiment: SPR 25C
T4 construct: extracellular domain; also called hFcgRIIIaV
T4 sequence (P08637 17-208 F176V): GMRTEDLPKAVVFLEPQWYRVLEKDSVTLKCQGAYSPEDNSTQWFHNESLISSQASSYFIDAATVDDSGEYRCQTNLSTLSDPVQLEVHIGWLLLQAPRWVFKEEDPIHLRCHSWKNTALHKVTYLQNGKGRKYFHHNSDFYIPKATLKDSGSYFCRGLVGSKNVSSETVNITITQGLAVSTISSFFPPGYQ

| Binder | binding per 1RU antibody | relative binding (A375-G1T3/B167-Lamlib=1) |
| --- | --- | --- |
| B1 | 0.0013 RU | 0.02 |
| B2 | 0.0022 RU | 0.03 |
| B3 | 0.0014 RU | 0.02 |
| B4 | 0.0005 RU | 0.01 |
| B5 | 0.0001 RU | 0 |
| B6 | 0.0025 RU | 0.04 |
| B7 | 0.0013 RU | 0.02 |

molecular target: T5, human FcgRIIa type R extracellular domain (human, UniProt P12318 34-217); experiment: SPR 25C
T5 construct: extracellular domain; also called hFcgRIIaR
T5 sequence (looked up): T1 sequence (looked up) with H134R

| Binder | binding per 1RU antibody | relative binding (A375-G1T3/B167-Lamlib=1) |
| --- | --- | --- |
| B1 | 0.0554 RU | 1.2 |
| B2 | 0.0376 RU | 0.81 |
| B3 | 0.0327 RU | 0.71 |
| B4 | 0.0371 RU | 0.8 |
| B5 | 0.0349 RU | 0.75 |
| B6 | 0.0361 RU | 0.78 |
| B7 | 0.0446 RU | 0.96 |

molecular target: T6, human FcgRIIIa F158 extracellular domain (human, UniProt P08637 17-208); experiment: SPR 25C
T6 construct: extracellular domain; also called hFcgRIIIaF
T6 sequence (P08637 17-208): as the sequence (P08637 17-208 F176V) above, with V160F counted along it

| Binder | binding per 1RU antibody | relative binding (A375-G1T3/B167-Lamlib=1) |
| --- | --- | --- |
| B1 | 0.0012 RU | 0.06 |
| B2 | 0.0009 RU | 0.04 |
| B3 | 0.0003 RU | 0.01 |
| B4 | 0.0007 RU | 0.03 |
| B5 | 0.0001 RU | 0 |
| B6 | 0.0011 RU | 0.05 |
| B7 | 0.001 RU | 0.05 |

molecular target: human FcRn (human, UniProt P55899 24-290; P61769 21-119); experiment: SPR 25C pH 6.0, steady state
Sequence (P55899 24-290 limits assumed, chain 1 of 2): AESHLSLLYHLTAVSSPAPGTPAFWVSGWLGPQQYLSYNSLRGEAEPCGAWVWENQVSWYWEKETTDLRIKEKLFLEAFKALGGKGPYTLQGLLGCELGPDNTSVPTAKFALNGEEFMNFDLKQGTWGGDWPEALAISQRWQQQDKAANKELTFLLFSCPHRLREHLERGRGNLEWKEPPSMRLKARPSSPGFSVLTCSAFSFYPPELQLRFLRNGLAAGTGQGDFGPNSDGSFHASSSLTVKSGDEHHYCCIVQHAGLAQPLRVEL
Sequence (P61769 21-119 limits assumed, chain 2 of 2): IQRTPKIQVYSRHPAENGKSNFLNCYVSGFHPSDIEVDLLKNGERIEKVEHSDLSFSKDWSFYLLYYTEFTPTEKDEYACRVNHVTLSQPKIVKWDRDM
Outline: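 Antibody (~400 RU) captured on anti-Fab-lambda sensor chip, human FcRn injected as analyte.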

| Binder | Kd |
| --- | --- |
| B1 | 1110 nM |
| B2 | 1100 nM |
| B3 | 1490 nM |
| B4 | 1130 nM |
| B5 | 1210 nM |
| B6 | 1180 nM |
| B7 | 1460 nM |
